Data taken from patent US20220169677A1 (INSERM INSTITUT NATIONAL DE LA SANTE ET DE LA RECHERCHE …, published 2022).

T1: recombinant human NRP-1 (human, UniProt O14786-2 22-644, limits assumed)
T1 construct: Coated on a 96-well plate at 200 ng/well; GenBank AAC51759.1 is printed only as the preferred definition of NRP-1; also called Neuropilin-1
T1 sequence (looked up): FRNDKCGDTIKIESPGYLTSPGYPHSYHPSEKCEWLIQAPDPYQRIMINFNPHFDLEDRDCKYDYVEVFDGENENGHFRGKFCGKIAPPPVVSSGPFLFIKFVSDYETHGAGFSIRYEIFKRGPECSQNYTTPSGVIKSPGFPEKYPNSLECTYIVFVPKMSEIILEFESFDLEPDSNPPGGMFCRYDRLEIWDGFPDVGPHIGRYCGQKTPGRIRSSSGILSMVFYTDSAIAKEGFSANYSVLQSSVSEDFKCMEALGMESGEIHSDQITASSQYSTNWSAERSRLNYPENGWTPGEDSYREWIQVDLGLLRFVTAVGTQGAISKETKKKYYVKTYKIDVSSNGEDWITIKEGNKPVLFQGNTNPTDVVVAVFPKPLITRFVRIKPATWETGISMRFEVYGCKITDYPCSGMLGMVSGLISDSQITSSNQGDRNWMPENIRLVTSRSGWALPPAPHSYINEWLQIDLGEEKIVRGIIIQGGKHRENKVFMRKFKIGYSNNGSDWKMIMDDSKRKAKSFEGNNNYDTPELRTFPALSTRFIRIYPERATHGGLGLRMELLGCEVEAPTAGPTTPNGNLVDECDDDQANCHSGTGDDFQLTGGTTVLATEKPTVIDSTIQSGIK


target: T1, recombinant human NRP-1; assay: chemiluminescence competition: inhibition of (bt)-VEGF-A165 binding to coated NRP-1
Procedure: The flat bottom surface of a 96-well plate was coated with 100 μL (200 ng/well) recombinant human NRP-1 and incubated overnight at 4° C. Non-specific binding was blocked by the incubation with 0.5% BSA in PBS. 50 μL of peptide dissolved in PBS in range concentrations and 50 μL (400 ng/mL) of human (bt)-VEGF-A₁₆₅ in PBS containing 4 μg/mL of heparin were added respectively. After 2 h incubation at room temperature the plate was washed and treated with streptavidin-horseradish peroxidase conjugate in PBS (1:8000). Chemiluminescence was quantified immediately after addition of 100 μL Chemiluminescent substrate. In a positive control only (bt)-VEGF-A₁₆₅ was present in wells, while, in negative control, wells were not coated by NRP-1. Percentages of inhibition were calculated by the following formula: […]

Row | IC50 [nM] | fold decrease in IC50 against the sequence without cysteine [fold] | Molecule
1 | 50 | 100 | H-Cys-Lys(hArg)-Dab-Oic-Arg-OH (peptide)
2 | 70 | 100 | H-Cys-Lys(hArg)-Dab-ΔPro-Arg-OH (peptide)
3 | 40 | 100 | H-Lys(Cys-hArg)-Dab-Oic-Arg-OH (peptide)
4 | 60 | 100 | H-Lys(Cys-hArg)-Dab-ΔPro-Arg-OH (peptide)
5 | 17000 |  | H-CLPPR-OH (LPPR (active part of A7R) with an added N-terminal Cys; also called CLPPR) [H2N-Cys-Leu-Pro-Pro-Arg-OH]
6 | 100 |  | H-CKPRR-OH (KPRR (peptide derived from the VEGF-A165 C-terminus) with an added N-terminal Cys; also called CKPRR) [H2N-Cys-Lys-Pro-Arg-Arg-OH]
7 | 19000 |  | H-CTKPR-OH (TKPR (tuftsin) with an added N-terminal Cys; also called CTKPR) [H2N-Cys-Thr-Lys-Pro-Arg-OH]

target: T1, recombinant human NRP-1; assay: competition: inhibition of (bt)-VEGF-A165 binding to coated NRP-1

Row | IC50 [nM] | Molecule
8 | 4500 | KPRR (Parent tetrapeptide without Cys; 5) [KPRR (peptide derived from the VEGF-A165)]
9 | 80000 | LPPR (Parent tetrapeptide without Cys; 3) [LPPR (active part of A7R)]
